Experiment: yeast display, Sf9 membrane polyspecificity reagent, FACS + sequencing; frameworks hold sequencing errors
How it was run: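 Using colony PCR, genes from sorted yeast display clones were amplified, then sequenced on MiSeq at 2 × 250 and filtered by CDR length. The clones had been stained with 10% biotinylated, detergent-solubilized Sf9 membrane reagent for 1 hour at 4 °C and sorted by FACS into low and high (top ~1%) gates on anti-HA and streptavidin fluorescence. Polyreactivity labels come from the gate of origin.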

| Sequence | polyreactivity (PSR sort gate) |
| --- | --- |
| QVQLVESGGGLVQAGGSLRLSCAASGLTFWAYTMGWYRQAPGKERELVAAITSSGGRTYYADSVKGRFTISRDNAKNTVYLQMNSLKPEDTAVYYCAALGGRYRASTYGYWGQGTQVTVSS | high polyreactivity |
| QVQLVESGGGLVQAGGSLRLSCAASGLTFWDNAMGWYRQAPGKERELVAAITRSGGSTHYADSVKGRFTISRDNAKNTVYLQMNSLKPEDTAVYYCAADYDFYDFSYQSWSEENYWGQGTQVTVSS | low polyreactivity |
| QVQLVESGGGLVQAGGSLRLSCAASGLTFWEYAMGWYRQAPGQERELVAAITRGGNTYYADSVKGRFTISRDNAKNTVSLQMNSLKPEDTAVYYCAARGYYLTGGCRRYYYWGQGTQVTVSS | high polyreactivity |
| QVQLVESGGGLVQAGGSLRLSCAASGLTFWFNAMGWYRPAPGKERALVGAIRNRGGSTYYADSVKGRFTISRDTAKNTVYLQMNSLKPEDTAVYYCAAVSWFLVGPRYYYWGQGTQVTVSS | high polyreactivity |
| QVQLVESGGGLVQAGGSLRLSCAASGLTFWGYAMGWYRQAPGKEREFVASISSGGGSTYYADSVKGRFTISRDNAKNTVYLQMNSLKPEDTAVYYCNADRTQDRNPYTYATFDYWGQGTQVTVSS | low polyreactivity |
| QVQLVESGGGLVQAGGSLRLSCAASGLTFWLNAMGWYRQAPGKERELVAAIRYSGVGTYADSVKGRFTISRDNAKNTVYLQMNSLKPEDTAVYYCAALYNLGYPQFDYWGQGTQVTVSS | low polyreactivity |
| QVQLVESGGGLVQAGGSLRLSCAASGLTFWPNAMGWYRQAPGKERELVAAISYTGGITYYADSVKGRFTISRDNAKNTDYLQMNSLKPEDTAVYSCNKGRRGYYSVRRYDYWGQGTQVTVSS | low polyreactivity |
| QVQLVESGGGLVQAGGSLRLSCAASGLTFWVYAMGWYRQAPGKERELVAAISGSGARTYYADSVKGRFTISRDNAKNTVYLQMNSLKPEDTAVYYCAARAVRATAKYEYWGQGTQVTVSS | high polyreactivity |
| QVQLVESGGGLVQAGGSLRLSCAASGLTFWYNAMGWYRQAPGKERELVAAINSGGRTNYADSVKGRFTISRDNAKNTVYLQMNSLKPEDTAVYYCAAVRHWTVGWTYYYWGQGTQVTVSS | high polyreactivity |
| QVQLVESGGGLVQAGGSLRLSCAASGLTFYDYAMGWYRQAPGKERELVAAISSGGSTYYADSVKGRFTISRDNAKNTVYLHMNSLKPEDTAVYYCAARPAYRVHAMGYWGQGTQVTVSS | low polyreactivity |
| QVQLVESGGGLVQAGGSLRLSCAASGLTFYEYAMGWYTQAPGKERELVAAITASGGSTYYADSVKGRFTISRDNAKNTVYLQMNSLKPEDSAVYYCAAVDYVRYYPDEFDYWGQGTQVTVSS | low polyreactivity |
| QVQLVESGGGLVQAGGSLRLSCAASGLTFYKNVMGWYRQAPGKERELVAAISSSGGSTYYADSVKGRFTISRDNAKNTVYLQMNSLKPDDTAVYYGAADDPLYTPYEFDYWGQGTQVTVSS | low polyreactivity |
| QVQLVESGGGLVQAGGSLRLSCAASGLTFYLYDMGWYRQAPGKERELVAAISRRGTSTYYADSVKGRFTISRDNAKNTVYLQMNSLKPEDTAVYYCAADRKFGRDYWGQGTQVTVSS | high polyreactivity |
| QVQLVESGGGLVQAGGSLRLSCAASGLTFYRNAMGWYRQAPGKERELVAAITSRGGSTYYADSVKGRFTISRDNAKNTVYLQMNSLKPEDTAVYYCAAYSTLITGRDYGYWGQGTQVTVSS | high polyreactivity |
| QVQLVESGGGLVQAGGSLRLSCAASGLTFYRYAMGLYRQAPGKERELVAGITRRGGSTYYADSVKGRFTISRDNAKNTVYLQMNSLKPEDTSVYYCNVDGISSSYPELDYWGQGTQVTVSS | low polyreactivity |
| QVQLVESGGGLVQAGGSLRLSCAASGLTFYRYAMGWYRQAPWKERDFVAAINRNGGSTYYADSVKGRFTISRDNAKNTVYLEMNSLKPEDTAVYYCNARVSGTRSGRVLRDYWGQGTQVTVSS | high polyreactivity |
| QVQLVESGGGLVQAGGSLRLSCAASGLTFYSYAMGWSRQAPGKERELVAAISKSGGSTFYADSVKGRFTISRDNAKNTVYLQMNSLKPEDTAVYYCNARRRHEGSPPYGYWGQGTQVTVSS | high polyreactivity |
| QVQLVESGGGLVQAGGSLRLSCAASGLTFYSYAMGWYRQAPGKERELVAAISKSGGSTYYADSVKGRFTISRDNAKNTVYLQMNSLKPEDTAVYYCNALTKTGTPPDYDYWGQGTQVTVSS | high polyreactivity |
| QVQLVESGGGLVQAGGSLRLSCAASGLTFYTNAMGWYRQAPGKERELVAAITSSGGRTYYADSVKGRFTISRDNAKNTVYLQMNSLKPEDTAVYYCAADARRPSIPEMYYCGQGTQVTVSS | high polyreactivity |
| QVQLVESGGGLVQAGGSLRLSCAASGLTFYVYGMGWYRQAPGKERELVASITSGGNTYYADSVKGRFTISRDNAKNTVYLQMNSLKPEDTAVYYCAVTAIALYYSSGYYWGQGTQVTVSS | low polyreactivity |
| QVQLVESGGGLVQAGGSLRLSCAASGLTFYYNAMGWYRPAPGKERELVAAITWSTDSTYYADSVKGRFTISRDNAKNTVYLQMNSLKPEDTAVYYCAAAVDAFTNKQYYYWGQGTQVTVSS | low polyreactivity |

| Sequence | polyreactivity (PSR sort gate) |
| --- | --- |
| QVQLVESGGGLVQAGGSLRLSCAASGLTFYYYAKGWYRQAPGKERDFVAAISRSGGTTYYADSVKGRYTISRDNAKNTVYLQMNSLKPEDTAVYYCNAQWCRYWPSQVIFDYWGQGTQVTVSS | high polyreactivity |
| QVQLVESGGGLVQAGGSLRLSCAASGLTFYYYAMGWYRQAPGKERELVAAISGTGGSAYYADSVKGRFTISRDNAKNTVYLQMNSLKPEDTAVYYCAARYLRYKGTGATSAYDYWGQGTQVTVSS | high polyreactivity |
| QVQLVESGGGLVQAGGSLRLSCAASGLTFYYYAMGWYRQAPGKERELVAAISIGGSTDYADSAKGRFTISRDNAKNTVYLQMNRLKPEDTAVYYCNVDDNSEYDYWGQGTQVTVSS | low polyreactivity |
| QVQLVESGGGLVQAGGSLRLSCAASGLTFYYYAMGWYRQAPGKERELVAAISYSGSRTYYADSVKGRFTISRDNAKNTVYLQMNSLKPEDTAVYYCAARLSDGGGYWGQGTQVTVSS | high polyreactivity |
| QVQLVESGGGLVQAGGSLRLSCAASGLTFYYYAMGWYRQAPGKERELVASITKRGGSTYYADSVKGRFTISRDNAKNTVYLQMNSLKPEDTAVYYCAAQYRSQGQPKGGVLYYYWGQGTQVTVSS | high polyreactivity |
| QVQLVESGGGLVQAGGSLRLSCAASGLTFYYYAMGWYRQSPGKEREFVAAISRSGGTTYYADSVKGRFTISRDNAKNTVYLQMNSLKPEDTAVYYCAKASRYWSLYYWGQGTQVTVSS | high polyreactivity |
| QVQLVESGGGLVQAGGSLRLSCAASGLTFYYYTMGWYRQAPGKERELVAAIDNGGGTNYADSVKGRFTISRDNAKNTVYLQMNSLKPEDTAVYYCAADRSYYIIIGYDLFAYYYWGQGTQVTVSS | low polyreactivity |
| QVQLVESGGGLVQAGGSLRLSCAASGLTFYYYVMGWYRQAPGKERELVAAISYSGGRTYYADSVKGRFTISRDNAKNTVYFQMNSLKPEDTEVYYCAAQSRYGGKFYYWGQGTQVTVSS | high polyreactivity |
| QVQLVESGGGLVQAGGSLRLSCAASGLTIFVYAMGWYRQAPGKERELVAAISDSGGSTYYADSVKGRFTISRDNAKNTVYLQMNSLKPEDSAVYYCAGNSSTYPSDDSYDYWGQGTQVTVSS | low polyreactivity |
| QVQLVESGGGLVQAGGSLRLSCAASGLTINYYAMGLYRQAPGKERELVAAITWRGGSTYYADSVKGRFTISRDNAKNTVYLQMNSLKPEDTAVYYCAADPGPYGYYYWGQGTQVTVSS | low polyreactivity |
| QVQLVESGGGLVQAGGSLRLSCAASGLTIRRYVMGWYRQAPGKERELVAAINWNGGSTYYADSVKGRFTISRDNAKNTVYLQMNSLKPEDTAVYYCAARSTYVYDYNYWGQGTQVTVSS | high polyreactivity |
| QVQLVESGGGLVQAGGSLRLSCAASGLTISRYAMGWYRQAPGKERELVAAITSIGGSTYYADSVKGRFTISRDNAKNTVYLQMNSLKPVDTAVYYCACLRCLFPGRFDYWGQSTQVTVSS | high polyreactivity |
| QVQLVESGGGLVQAGGSLRLSCAASGLTITYNAMGWYRQAPGKERELVAAISWSGDSTYADSVKGRFTISRDNAKNTVYLQKNSLKPEDTAVYYCAVPKYYYYVSRFNYWGQGTQVTVSS | high polyreactivity |
| QVQLVESGGGLVQAGGSLRLSCAASGLTIWRYAMGWYIQAPGKERDLLAAISRSGIRTYYADSVKGRFTISRDTAKITVYLQMNSLKPEDTAVYYCAADSNAYITGRDYWGQVTQVTVSS | high polyreactivity |
| QVQLVESGGGLVQAGGSLRLSCAASGLTLAPYAMGWYRQAPGKERELVAAITFSGGSTYYADSVKGRFTISRDNAKNTVYLQMNSLKPEDTAVYYCARDTWAYKNGYPYYSWGQRTQVTVSS | low polyreactivity |
| QVQLVESGGGLVQAGGSLRLSCAASGLTLGRNAMGWYRQAPGKERELVAAISYGGGSTYYADSVKGRFTISRDNAKNTVYLQMNCLKPEDTAVYYCAADGWRTYGYYEYDYWGQGTQVTVSS | low polyreactivity |
| QVQLVESGGGLVQAGGSLRLSCAASGLTLIRYAMGWYRQAPGKERELVAAISWSGGSTYYADSVKGRFTISRDNAKNTVYLQMNSLKPEDTAVYYCNTVYRYPDEYDYWGQGTQVTVSS | high polyreactivity |
| QVQLVESGGGLVQAGGSLRLSCAASGLTLTGYAMGWYRQAPGKERELVAAISQDGGNTYYADSVKGRFTISRDNAKNTVYLQMNSLKREDTAVYYCAAVGRAKYYYWGQGTQVTVSS | low polyreactivity |
| QVQLVESGGGLVQAGGSLRLSCAASGLTLTHYAMGWYRQAPGKERELVAAISSSGGRTYYADSVKGRFTISRDNAKNTVYLQMNSLKPEDTAVYYCAARVIASRGRYGYWGQGTQVTVSS | high polyreactivity |
| QVQLVESGGGLVQAGGSLRLSCAASGLTQYKNGMGWYRQAPGKERELVAVISRSGGRTYYADSVKGRFTISRDNAKNTVYLQMNSLKPEDTAVYYCAARQYGPRYTYYYWGQGTQVTVSS | high polyreactivity |
